According to IntAct's records for PubMed 19497856:

B1: Homeobox protein SIX1 (Homo sapiens), Q15475 (parent)
chain: MSMLPSFGFTQEQVACVCEVLQQGGNLERLGRFLWSLPACDHLHKNESVLKAKAVVAFHRGNFRELYKILESHQFSPHNHPKLQQLWLKAHYVEAEKLRGRPLGAVGKYRVRRKFPLPRTIWDGEETSYCFKEKSRGVLREWYAHNPYPSPREKRELAEATGLTTTQVSNWFKNRRQRDRAAEAKERENTENNNSSSNKQNQLSPLEGGKPLMSSSEEEFSPPQSPDQNSVLLLQGNMGHARSSNYSLPGLTASQPSHGLQTHQHQLQDSLLGPLTSSLVDLGS
partner: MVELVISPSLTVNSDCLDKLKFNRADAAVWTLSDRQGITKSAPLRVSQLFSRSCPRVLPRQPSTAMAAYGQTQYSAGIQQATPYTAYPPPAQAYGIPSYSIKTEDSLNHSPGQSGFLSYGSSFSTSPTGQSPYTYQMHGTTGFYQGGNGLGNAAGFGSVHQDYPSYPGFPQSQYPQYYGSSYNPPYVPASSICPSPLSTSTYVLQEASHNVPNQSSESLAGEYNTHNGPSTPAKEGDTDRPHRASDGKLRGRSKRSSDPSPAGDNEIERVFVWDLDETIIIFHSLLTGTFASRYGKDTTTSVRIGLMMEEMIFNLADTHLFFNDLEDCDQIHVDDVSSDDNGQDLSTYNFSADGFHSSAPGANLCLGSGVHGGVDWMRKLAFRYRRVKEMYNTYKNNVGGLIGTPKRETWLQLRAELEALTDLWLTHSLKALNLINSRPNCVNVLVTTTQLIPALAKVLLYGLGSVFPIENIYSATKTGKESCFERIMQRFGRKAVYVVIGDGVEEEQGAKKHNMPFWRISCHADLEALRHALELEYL

Variants of: B1
Details: with eya2_human EYA2, O00167

effect of a mutation on the interaction	Variant
decreasing interaction strength	V17E
